Results reported in the supplement of paper PMC7877785.
± gives the uncertainty stated by the source.

Assay: self-splicing fitness, log relative to wild type (ln ratio); higher = more splicing; Tetrahymena group I intron in knt gene, E. coli kanamycin selection, DiMSum; sequences stand for … in CUCUCU…GGAGGGAAAAGUUAUCAGGCAUGCACCUGGUAGCUAGUCUUUAAACCAAUAGAUUGCAUCGGUUUAAAAGGCAAGACCGUCAAAUUGCGGGAAAGGGGUCAACAGCCGUUCAGUACCAAGUCUCAGGGGAAACUUUGAGAUGGCCUUGCAAAGGGUAUGGUAAUAAGCUGACGGACAUGGUCCUAACCACGCAGCCAAGUCCUAAGUCAACAGAUCUUCUGUUGAUAUGGAUGCAGUUCACAGACUAAAUGUCGGUCGGGGAAGAUGUAUUCUUCUCAUAAGAUAUAGUCGGACCUCUCCUUAAUGGGAGCUAGCGGAUGAAGUGAUGCAACACUGGAGCCGCUGGGAACUAAUUUGUAUGCGAAAGUAUAUUGAUUAGUUUUGGAGUACUCGUGGUCG
Summary of the method: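 Colonies from six replicate transformations of E. coli BL21(DE3) were pooled and amplicon-sequenced on an Illumina HiSeq 2500. The library placed an intron with all eight P1ex-region nucleotides randomised inside the knt kanamycin-resistance gene on pET-22b(+), and cells grew overnight at 37°C or 30°C on LB agar with or without 25 μg/mL kanamycin (plus 100 μg/mL carbenicillin, 50 μM IPTG, 0.2% rhamnose). Fitness is the DiMSum error-weighted combination of wild-type-normalised replicate fold changes, kanamycin versus none.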

Row | Sequence | self-splicing fitness (ln) (30 °C) | self-splicing fitness (ln) (37 °C)
1 | CUUCAGCAAUAUUACGAAAG | -2.44 ± 0.077 | -1.55 ± 0.12
2 | CCGGAGCAAUAUUACGUAUA | -3.21 ± 0.23 | -2.49 ± 0.36
3 | UUAGAGCAAUAUUACGUGUU | -4.76 ± 0.32 | -2.53 ± 0.28
4 | UGAAAGCAAUAUUACGCGCC | -0.832 ± 0.21 | -0.728 ± 0.23
5 | UGCAAGCAAUAUUACGUGAC | -2.65 ± 0.39 | -2.19 ± 0.28
6 | CAACAGCAAUAUUACGCUCC | -1.72 ± 0.098 | -0.675 ± 0.14
7 | CUGUAGCAAUAUUACGUGCG | -1.38 ± 0.08 | -0.547 ± 0.092
8 | AGCGAGCAAUAUUACGUGCG | -2.67 ± 0.094 | -0.964 ± 0.098
9 | UUUUAGCAAUAUUACGAUGU | -2.19 ± 0.23 | -1.6 ± 0.16
10 | GUGCAGCAAUAUUACGGCCU | -0.775 ± 0.11 | 0.175 ± 0.13
11 | UAGGAGCAAUAUUACGAGCG | -3.58 ± 0.4 | -1.31 ± 0.35
12 | CUAUAGCAAUAUUACGUCGG | -1.97 ± 0.2 | -1.33 ± 0.2
13 | GACUAGCAAUAUUACGUCAU | -2.73 ± 0.17 | -1.1 ± 0.17
14 | CGUAAGCAAUAUUACGUCUC | -3.77 ± 0.28 | -1.95 ± 0.17
15 | AAUUAGCAAUAUUACGAUCG | -0.473 ± 0.13 | 0.0147 ± 0.16
16 | AAGCAGCAAUAUUACGUUGG | -3.77 ± 0.17 | -1.45 ± 0.11
17 | UUCGAGCAAUAUUACGUUCC | -2.94 ± 0.26 | -1.19 ± 0.3
18 | CUCAAGCAAUAUUACGAACA | -3.45 ± 0.44 | -0.994 ± 0.31
19 | GCGCAGCAAUAUUACGAAUU | -1.64 ± 0.14 | -0.932 ± 0.22
20 | UGCUAGCAAUAUUACGCCUG | -0.427 ± 0.18 | 0.294 ± 0.2
21 | AUUCAGCAAUAUUACGGGGU | -3.78 ± 0.39 | -2.85 ± 0.26
22 | UGAAAGCAAUAUUACGUCGA | -0.893 ± 0.08 | -0.374 ± 0.1
23 | CUAUAGCAAUAUUACGUAUC | -5.21 ± 0.32 | -2.48 ± 0.14
24 | GACCAGCAAUAUUACGCGUA | -0.76 ± 0.059 | -0.392 ± 0.068

Row | Sequence | self-splicing fitness (ln) (30 °C) | self-splicing fitness (ln) (37 °C)
25 | AAUUAGCAAUAUUACGUAGG | -2.69 ± 0.12 | -1.96 ± 0.18
26 | ACGGAGCAAUAUUACGACCU | -1.69 ± 0.2 | -1.34 ± 0.25
27 | GUGAAGCAAUAUUACGCCAG | -1.09 ± 0.2 | -1.1 ± 0.22
28 | GCCUAGCAAUAUUACGAGUC | -0.636 ± 0.14 | -0.0225 ± 0.18
29 | UGACAGCAAUAUUACGCGCA | -0.495 ± 0.072 | 0.187 ± 0.077
30 | UUUAAGCAAUAUUACGCUGU | -3.57 ± 0.21 | -1.79 ± 0.18
31 | CCUUAGCAAUAUUACGCGGA | -2.93 ± 0.19 | -2.55 ± 0.21
32 | UCUUAGCAAUAUUACGGAAC | -0.987 ± 0.34 | -1.99 ± 0.43
33 | GGCUAGCAAUAUUACGACCU | -0.605 ± 0.081 | 0.0864 ± 0.09
34 | CACGAGCAAUAUUACGAAGC | – | -1.41 ± 0.26
35 | GCCCAGCAAUAUUACGACAU | -1.515 ± 0.012 | -0.82 ± 0.032
36 | GCCCAGCAAUAUUACGCAUU | -0.902 ± 0.05 | -0.248 ± 0.063
37 | GAGCAGCAAUAUUACGGGUC | -3.07 ± 0.18 | -1.91 ± 0.17
38 | AAGCAGCAAUAUUACGCAUU | -2.49 ± 0.12 | -1.23 ± 0.12
39 | GAUCAGCAAUAUUACGAGGC | – | -1.92 ± 0.23
40 | GCCCAGCAAUAUUACGCGCC | -4.19 ± 0.42 | -0.613 ± 0.19
41 | UCUUAGCAAUAUUACGUAGA | -1.15 ± 0.21 | -0.474 ± 0.18
42 | UAGGAGCAAUAUUACGUGUG | -2.86 ± 0.15 | -1.72 ± 0.15
43 | AUAAAGCAAUAUUACGGGUG | -1.03 ± 0.082 | -0.259 ± 0.094
44 | UGACAGCAAUAUUACGGAUA | -1.25 ± 0.095 | -0.669 ± 0.11
45 | CCUGAGCAAUAUUACGGAAG | -2.82 ± 0.15 | -1.29 ± 0.12
46 | UUGUAGCAAUAUUACGAUGG | -1.53 ± 0.16 | -0.75 ± 0.2
47 | UACCAGCAAUAUUACGAACU | -2.26 ± 0.1 | -0.819 ± 0.11
48 | CGGUAGCAAUAUUACGUUCA | -1.32 ± 0.13 | -0.963 ± 0.15

Row | Sequence | self-splicing fitness (ln) (30 °C) | self-splicing fitness (ln) (37 °C)
49 | ACUUAGCAAUAUUACGGUAC | -3.36 ± 0.21 | -3.57 ± 0.42
50 | UAUCAGCAAUAUUACGUAUU | -0.834 ± 0.078 | -0.815 ± 0.094
51 | CUGCAGCAAUAUUACGGCGC | -3.82 ± 0.3 | -2.75 ± 0.4
52 | CCUAAGCAAUAUUACGGGGG | -3.51 ± 0.2 | -2.5 ± 0.24
53 | ACAUAGCAAUAUUACGUAAG | -1.94 ± 0.085 | -1.6 ± 0.12
54 | GAUUAGCAAUAUUACGUGUA | -2.22 ± 0.13 | -1.63 ± 0.14
55 | CGGGAGCAAUAUUACGGUCA | -3.17 ± 0.32 | -1.93 ± 0.28
56 | CCCAAGCAAUAUUACGGAGU | -3.37 ± 0.11 | -2.47 ± 0.11
57 | GCAUAGCAAUAUUACGUGAC | -2.49 ± 0.2 | -0.677 ± 0.14
58 | UGCAAGCAAUAUUACGCAGU | -3.63 ± 0.3 | -3.35 ± 0.39
59 | AGGUAGCAAUAUUACGUGUA | -2.265 ± 0.017 | -1.31 ± 0.033
60 | CGUAAGCAAUAUUACGUAGC | -4.38 ± 0.36 | -1.62 ± 0.26
61 | GAAGAGCAAUAUUACGGCCG | -2.63 ± 0.42 | -0.854 ± 0.29
62 | AGAGAGCAAUAUUACGUGAU | -3.94 ± 0.18 | -2.1 ± 0.23
63 | AUCUAGCAAUAUUACGAUAC | -3.21 ± 0.35 | -2.27 ± 0.29
64 | GACAAGCAAUAUUACGUGUG | -2.78 ± 0.078 | -1.56 ± 0.083
65 | AUUCAGCAAUAUUACGCUCC | -0.31 ± 0.073 | 0.274 ± 0.096
66 | UCUCAGCAAUAUUACGUCGU | -2.11 ± 0.091 | -1.91 ± 0.11
67 | UGGCAGCAAUAUUACGGUAC | -2.66 ± 0.2 | -2.01 ± 0.31
68 | GGAGAGCAAUAUUACGUUUU | -3.36 ± 0.23 | -1.15 ± 0.3
69 | GGACAGCAAUAUUACGCCUG | -2.65 ± 0.15 | -0.758 ± 0.13
70 | AGGAAGCAAUAUUACGUAGG | -3 ± 0.15 | -2.3 ± 0.23
71 | CCCAAGCAAUAUUACGUGGA | -0.971 ± 0.052 | -0.376 ± 0.061
72 | CUCUAGCAAUAUUACGUGCG | -2.61 ± 0.22 | -3.7 ± 0.3

Row | Sequence | self-splicing fitness (ln) (30 °C) | self-splicing fitness (ln) (37 °C)
73 | AACUAGCAAUAUUACGGAAA | -2.54 ± 0.2 | -0.697 ± 0.13
74 | AGUUAGCAAUAUUACGCCCC | -0.473 ± 0.23 | –
75 | CGCAAGCAAUAUUACGAGUA | -2.53 ± 0.14 | -0.869 ± 0.096
76 | GGCUAGCAAUAUUACGCAGA | -1.3 ± 0.1 | -0.502 ± 0.11
77 | GAGCAGCAAUAUUACGCGUG | -1.92 ± 0.15 | -1.66 ± 0.18
78 | CAACAGCAAUAUUACGAGGU | -4.43 ± 0.29 | -2.24 ± 0.17
79 | GACGAGCAAUAUUACGGCUC | -2.6 ± 0.12 | -1.41 ± 0.15
80 | UAAAAGCAAUAUUACGGGGA | -1.73 ± 0.12 | -0.962 ± 0.12
81 | UACUAGCAAUAUUACGCUCC | -2.42 ± 0.23 | -1.21 ± 0.23
82 | AAUAAGCAAUAUUACGCUGG | -1.81 ± 0.17 | -1.5 ± 0.21
83 | AGCUAGCAAUAUUACGGCCU | -0.139 ± 0.073 | -0.106 ± 0.091
84 | GACCAGCAAUAUUACGGGAU | -1.71 ± 0.084 | -0.575 ± 0.099
85 | AGUGAGCAAUAUUACGGCAA | -2.12 ± 0.21 | -0.889 ± 0.2
86 | AUGUAGCAAUAUUACGCAUG | -1.38 ± 0.095 | -0.413 ± 0.12
87 | GCCAAGCAAUAUUACGCAAG | -2.89 ± 0.17 | -1.7 ± 0.2
88 | GCGCAGCAAUAUUACGAUAA | -1.85 ± 0.11 | -0.604 ± 0.14
89 | AGAUAGCAAUAUUACGCUAC | -2.97 ± 0.44 | -2.56 ± 0.38
90 | CACUAGCAAUAUUACGAACG | -0.448 ± 0.071 | 0.647 ± 0.11
91 | GUUCAGCAAUAUUACGGAAA | -0.778 ± 0.13 | 0.58 ± 0.19
92 | AUGCAGCAAUAUUACGCCCU | -0.387 ± 0.22 | 0.0709 ± 0.25
93 | AAGCAGCAAUAUUACGUGCA | -0.892 ± 0.065 | -0.453 ± 0.084
94 | GUAGAGCAAUAUUACGCCUU | -0.0606 ± 0.13 | 0.0599 ± 0.17
95 | UCUCAGCAAUAUUACGAGCU | -1.48 ± 0.086 | -0.552 ± 0.12
96 | AGUUAGCAAUAUUACGUAGA | -3.12 ± 0.14 | -1.59 ± 0.14
